We go through two proteins from article PMC5849714, “Direct coupling of detergent purified human mGlu5 receptor to the heterotrimeric G proteins Gq and Gs” (Scientific Reports, 2018).

Data set [1] deals with the molecule itself. The experiment in a line: non-reducing SDS-PAGE; SNAP-Red-labelled receptor extracted from HEK293 cells with detergent, non-purified material; non-reducing conditions; fluorescence scan of the gel.
Data set [2] concerns the molecule itself. Briefly: non-reducing SDS-PAGE; purified receptor from Sf9 after SEC, Coomassie-blue stained gel; bands identified by mass spectrometry; reducing reagent raised the monomer band.

B1: SNAP-mGlu5-Δ856 (FLAG-SNAP-tagged human mGlu5 receptor truncated after A856) (receptor, UniProt P41594-2 21-856, looked up)
chain: QSSERRVVAHMPGDIIIGALFSVHHQPTVDKVHERKCGAVREQYGIQRVEAMLHTLERINSDPTLLPNITLGCEIRDSCWHSAVALEQSIEFIRDSLISSEEEEGLVRCVDGSSSSFRSKKPIVGVIGPGSSSVAIQVQNLLQLFNIPQIAYSATSMDLSDKTLFKYFMRVVPSDAQQARAMVDIVKRYNWTYVSAVHTEGNYGESGMEAFKDMSAKEGICIAHSYKIYSNAGEQSFDKLLKKLTSHLPKARVVACFCEGMTVRGLLMAMRRLGLAGEFLLLGSDGWADRYDVTDGYQREAVGGITIKLQSPDVKWFDDYYLKLRPETNHRNPWFQEFWQHRFQCRLEGFPQENSKYNKTCNSSLTLKTHHVQDSKMGFVINAIYSMAYGLHNMQMSLCPGYAGLCDAMKPIDGRKLLESLMKTNFTGVSGDTILFDENGDSPGRYEIMNFKEMGKDYFDYINVGSWDNGELKMDDDEVWSKKSNIIRSVCSEPCEKGQIKVIRKGEVSCCWTCTPCKENEYVFDEYTCKACQLGSWPTDDLTGCDLIPVQYLRWGDPEPIAAVVFACLGLLATLFVTVVFIIYRDTPVVKSSSRELCYIILAGICLGYLCTFCLIAKPKQIYCYLQRIGIGLSPAMSYSALVTKTNRIARILAGSKKKICTKKPRFMSACAQLVIAFILICIQLGIIVALFIMEPPDIMHDYPSIREVYLICNTTNLGVVTPLGYNGLLILSCTFYAFKTRNVPANFNEAKYIAFTMYTTCIIWLAFVPIYFGSNYKIITMCFSVSLSATVALGCMFVPKVYIILAKPERNVRSAFTTSTVVRMHVGDGKSSSAA
modifications: SNAP tag labelled with a cell-impermeant red fluorophore (SNAP-Red)
notes: metabotropic glutamate receptor 5 (mGlu5), human, truncated after A856 by a stop codon; Construct from Cisbio Bioassays; the SNAP tag is extracellular; also called SNAP-Tag C-terminal mGlu5-Δ856 receptor; hmGlu5-ΔCter-A856; source: HEK293, transiently transfected; extracted with MNG3/CHS, not purified; on cells in the cAMP assay
As for B1, the “stoichiometry N” value in data set [1] amounted to 2.

B2: mGlu5-Δ856-eGFP (receptor, human, UniProt P41594-2 21-856, looked up)
chain: QSSERRVVAHMPGDIIIGALFSVHHQPTVDKVHERKCGAVREQYGIQRVEAMLHTLERINSDPTLLPNITLGCEIRDSCWHSAVALEQSIEFIRDSLISSEEEEGLVRCVDGSSSSFRSKKPIVGVIGPGSSSVAIQVQNLLQLFNIPQIAYSATSMDLSDKTLFKYFMRVVPSDAQQARAMVDIVKRYNWTYVSAVHTEGNYGESGMEAFKDMSAKEGICIAHSYKIYSNAGEQSFDKLLKKLTSHLPKARVVACFCEGMTVRGLLMAMRRLGLAGEFLLLGSDGWADRYDVTDGYQREAVGGITIKLQSPDVKWFDDYYLKLRPETNHRNPWFQEFWQHRFQCRLEGFPQENSKYNKTCNSSLTLKTHHVQDSKMGFVINAIYSMAYGLHNMQMSLCPGYAGLCDAMKPIDGRKLLESLMKTAFTGVSGDTILFDENGDSPGRYEIMNFKEMGKDYFDYINVGSWDNGELKMDDDEVWSKKSNIIRSVCSEPCEKGQIKVIRKGEVSCCWTCTPCKENEYVFDEYTCKACQLGSWPTDDLTGCDLIPVQYLRWGDPEPIAAVVFACLGLLATLFVTVVFIIYRDTPVVKSSSRELCYIILAGICLGYLCTFCLIAKPKQIYCYLQRIGIGLSPAMSYSALVTKTNRIARILAGSKKKICTKKPRFMSACAQLVIAFILICIQLGIIVALFIMEPPDIMHDYPSIREVYLICNTTNLGVVTPLGYNGLLILSCTFYAFKTRNVPANFNEAKYIAFTMYTTCIIWLAFVPIYFGSNYKIITMCFSVSLSATVALGCMFVPKVYIILAKPERNVRSAFTTSTVVRMHVGDGKSSSAA
notes: metabotropic glutamate receptor 5 (mGlu5), human, truncated after A856; GP64 signal peptide (AcNPV) at the N-terminus; TEV protease site between receptor and eGFP, then 10x His; Theoretical MW printed: monomer 124,784 Da; also called mGlu5-eGFP; not shown: eGFP, C-terminal, kept
Consider B2, for which the “stoichiometry N” value in data set [2] turned out to be 2.
